The labels stand for the following.
B1: IMPI-002 (antibody, V domains shown)
VH: EVQLVESGGGLIQPGGSLRLSCAASGVTVSSNYMSWVRQAPGKGLEGVSVIYSGGSTYYADSVKGRFTISRDNSKNTLYLQMNSLRAEDTAVYYCARDTVVYGMDVWGQGTTVTVSS
VL: DIQLTQSPSFLSASVGDRVTITCWASQGISSYLAWYQQKPGKAPKLLIYAASTLQSGVPSRFSGSGSGTEFTLTISSLQPEDFATYYCQQLNSYPLTFGGGTKVEIK
B2: IMPI-052 (antibody, V domains shown)
VH: B1 VH with S35N, S56T
VL: B1 VL with A50T
B3: IMPI-056 (antibody, V domains shown)
VH: EVQLVESGGGLIQPGGSLRLSCAASGLTVSSNYMNWVRQAPGKKLEWVSVIYSGGSTFYADSVRGRFTISRDNSKNTLFLQMNSLRAEDSAVYYCARDLGPYGVDVWGQGTTVTVSS
VL: B1 VL with G100Q, K103R, V104L
B4: IMPI-067 (antibody, V domains shown)
VH: QVQLVESGGGVVQPGTSLRLSCAASGFTFNSFGMHWVRQAPGKGLEWVAVISYDGSSKYYADSVKGRFTISRDNSKNTLYLQMNSLRAEDTAVYYCAKDEGDYDDYYYGMDVWGQGTTVTVSS
VL: EIVLTQSPGSLSLSPGERATLSCRASQSLSSRYLAWYHQKPGQAPRLLIYGASSRATGIPDRFSGSGSGTDFTLTISGLEPEDFAVYYCQQYGNSITFGGGTKVEIK
B5: IMPI-068 (antibody, V domains shown)
VH: QVQLVESGGDVVQPGRSLRLSCAASGFTFSRYGMHWVRQAPGKGLEWVAVISYDGSDKYYADSVKGRFTISRDNSKNTLYLQMNSLRAEDTAVYYCAKQLPLYYYYYGMDVWGQGTTVTVSS
VL: AIQLTQSPSSLSASVGDRVTITCRASQGISSALAWYQQKPGKAPNLLIYDASSLESGVPSRFSGSGSGTDFTLTISSLQPEDFATYYCQQFNIYPHTFGPGTKVDIK
B6: YANG-1201 (antibody, V domains shown)
VH: QVQLQESGPGLVKPSGTLSLTCAVSGDSISNSKWWSWVRQPPGKGLEWIGEIFHSGSTNYNPSLKSRVTISVDKSQNQFSLKLNSVTAADTAVYYCARSASLYYYYGVDVWGQGTTVTVSS
VL: EIVLTQSPGTLSLSPGERATLSCRASQSVSNNYLAWYQQKPGQAPRLLIYGTSRRDTGIPDRFSGSGSGTDFTLTISRLEPEDFAVYYCEQYGSLPRTFGQGTKVEIK
B7: YANG-1207 (antibody, V domains shown)
VH: QVQLVESGGGVVQPGRSLRLSCAASGFTFSSYGMHWVRQAPGKGLEWVSVIWYDGTNKYYADSVKGRFTISRDNSKNTLYLQMNSLRAEDTAVYYCAREGVEFTGYFDYWGQGTLVTVSS
VL: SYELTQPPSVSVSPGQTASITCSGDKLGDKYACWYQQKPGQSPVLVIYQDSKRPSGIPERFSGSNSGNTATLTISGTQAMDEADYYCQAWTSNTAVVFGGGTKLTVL
B8: YANG-1203 (antibody, V domains shown)
VH: EVRLVESGGALVQPGRSLRLSCAASGFIFDGYAMHWVRQVPGKGLEWVSGISWNSGNIGYADSVKGRFTISRDNAKNSLYLQMNSLRAEDTALYYCAKDIRPSGKYYYGMDVWGQGTTVTVSS
VL: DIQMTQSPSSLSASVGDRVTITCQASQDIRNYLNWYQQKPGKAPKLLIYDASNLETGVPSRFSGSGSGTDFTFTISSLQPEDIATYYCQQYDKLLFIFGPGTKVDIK
B9: YANG-1204 (antibody, V domains shown)
VH: QVQLVESGGGVVQPGRSLRLSCAVSGFTFSNYGIHWVRQAPGKGLVWVAVISYEGSIKYYGDSVKGRFTISRDNSKNTLYLQMNSLRAEDTAVYYCARGAVAGNDAFDIWGQGTMVTVSS
VL: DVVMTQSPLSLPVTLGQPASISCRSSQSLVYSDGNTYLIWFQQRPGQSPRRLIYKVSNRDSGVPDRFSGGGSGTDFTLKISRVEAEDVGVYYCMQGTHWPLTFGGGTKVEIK
B10: YANG-1119 (antibody, V domains shown)
VH: EVQLVESGGGLVKPGGSLRLSCAASGFTFSSYSMNWVRQAPGKGLEWVSSISTGSSYIFYADSVKGRFTISRDNAKNSLYLQMNSLRAEDTAVYYCAKTGDLPFFDYWGQGTLVTVSS
VL: QSALTQPASVSGSPGQSITISCTGTSSDVGRYNYVSWYQQHPGKAPKLMIYEVSNRPSGVSNRFSGSKSGNTASLTISGLQAEDEADYYCSSYTSSSTMVFGGGTKLTVL
B11: YANG-1113 (antibody, V domains shown)
VH: B10 VH with I70M, L113P
VL: B10 VL
B12: YANG-1114 (antibody, V domains shown)
VH: B10 VH with Q3H, G8V
VL: B10 VL
B13: YANG-1118 (antibody, V domains shown)
VH: B10 VH with S33A, M34L, N77H, Y80S
VL: B10 VL with S91I
B14: YANG-1117 (antibody, V domains shown)
VH: B10 VH with M34V, A97V
VL: B10 VL with S26R, S54T, S95N, S96N
B15: YANG-1115 (antibody, V domains shown)
VH: B10 VH
VL: B10 VL with T108S
B16: YANG-1116 (antibody, V domains shown)
VH: B10 VH with A23E, T28N, S30R, S33A, M34L, Y80S
VL: B10 VL with S91I
B17: YANG-1206 (antibody, V domains shown)
VH: QVHLVESGGGMVQPGRSLRLSCAASGFTFSIYAMHWVRQAPGKGLEWVAVISYDGSNKYYADSVKGRFTISRDNSKNTLYLQMNSLRAEDTAVYYCAKVYGGSYWGGFDYWGQGTLVTVSS
VL: QSVLTQPPSVSGAPGQRVTISCTGTSSNIGSIYDVHWYQQLPGTAPKLLIYGNSNRPSGVPDRFSGSKSGTSASLAITGLQAEDEADYYCQSYDTSLSGSWVFGGGTKLNVL
B18: YANG-1202 (antibody, V domains shown)
VH: EMQLVESGGGLVQPGGSLRLSCAASGFTFSSFWMRWVRQAPGKGLEWVANIKQDGTEKYYVDSVKGRFTISRDNAKNSLYLQMNSLRAEDTAVYYCVRDRVGGDYYYYDMDVWGQGTTVTVSS
VL: DIQMTQSPSSLSASVGDRVTITCRASQDISNYLAWFQQKPGKAPKSLIYAASSLQSGVPSKFSGSGSGTDFTLTISGLQPEDSATYYCQQYNSYPRTFGQGTKVEIK
B19: YANG-1205 (antibody, V domains shown)
VH: QVQLVQSGAEVKKPGASVKVSCKASGYTFTSYCIHWVRQAPGQGLEWMGIINPSGGGTIFAQKFQGRVTMTRDTSTTTVYMELGSLRSDDTALYYCARGWSYDFWSGPDYWGQGTLVSVSS
VL: DIVMTQTPLSLSVTPGQPASISCKSSQSLLHSDGKTYLYWYLQKPGQPPQLLIYEVSNRFSGVPDRFSGSGSGTDFTLKISRVGAEDVGIYYCMHSIKLPPTFGQGTKVEIK

Positions count from the first letter of the chain named.

The first test has as its target full-length stabilised spike trimer protein of SARS-CoV-2 virus (in-house, soluble ECD with trimeris (SARS-CoV-2, UniProt P0DTC2 14-1208; P10104 458-484).
Experiment: not given
B1: the “HTRF deltaF” value was found to be 913 deltaF.
Same read-out and setting: for B2 the value was 1130 deltaF.
On to B3, for which the “HTRF deltaF” value is 1630 deltaF.
The same measure, in the same setting: for B4 the value was 963 deltaF; for B5, 1600 deltaF.

The next test deals with SARS-CoV-2 spike protein bearing furin mutation and truncation in retention sequence, on pseudoviral particles (SARS-CoV-2, UniProt P0DTC2 14-1255). The test can be described thus: cell-based or functional assay.
B6: the “PV neutralization % (Ab 1 ug/mL)” value is 40.6%.
Turning to B7, the “PV neutralization % (Ab 1 ug/mL)” value was 39.9%.
On the same count and under the same terms, for B8 the value was 41.4%; for B9, 44.8%.
Turning to B10, the “PV neutralisation IC50” value was determined as 0.96 nM and the “PV neutralization % (Ab 1 ug/mL)” value was 99%.
Take B11: the “PV neutralization % (Ab 1 ug/mL)” value is 97.6%.
For the molecule B12, the “PV neutralization % (Ab 1 ug/mL)” value amounted to 93.2%.
In the case of B13, the “PV neutralisation IC50” value is 0.25 nM and the “PV neutralization % (Ab 1 ug/mL)” value worked out at 99.3%.
As for B14, the “PV neutralization % (Ab 1 ug/mL)” value is 97.8%.
On the same count and under the same terms, for B15 the value was 97.8%.
On the same count and under the same terms, for B16 the value was 99.2%.
On the same count and under the same terms, for B17 the value was 45.9%.
As to B18, the “PV neutralization % (Ab 1 ug/mL)” value is 51.9%.
For B19, the “PV neutralization % (Ab 1 ug/mL)” value stood at 40.2%.

The values are drawn from US20250026813A1 (published 2025).
